Where no end group is shown, it is not given here. [ ]: non-standard residue; d: D form. Ahx = NCCCCCC(=O)O

For the test, the target named is T1, Soluble PDGF receptor, recombinant chimera of human PDGF-R-alpha (R&D Systems) (human, UniProt P16234 24-524).
T1 construct: Bought from R&D Systems; immobilized on a CM5 chip by EDC/NHS; not shown: called a recombinant chimera
Description: SPR, BIAcore 2000, receptor immobilized on CM5 chip, peptide as analyte, 1:1 global fit. Here is the method:
Surface Plasmon Resonance (SPR) Analysis. Real-time biomolecular interactions were analyzed with a BIAcore 2000 system (Biacore Inc., Piscataway, N.J.). Soluble PDGF receptor, recombinant chimera of human PDGF-R-alpha and PSGF-R-beta (R &D Systems, Minneapolis, Minn.), was immobilized on research grade CM5 chips (Biacore Inc., Piscataway, N.J.). Following activation with EDC/NHS, the receptors were immobilized on activated CM5 chips. To obtain kinetic data, different concentrations of analytes in HBS-EP buffer were injected over the sensor chip at a flow rate of 50 μl/min. Peptide binding was measured in resonance units (RU). At the end of each sample injection (120 s) buffer was passed over the sensor surface to monitor the dissociation phase. Reference responses from blank flow cells were subtracted from receptor-containing flow cells for each analyte injection and the kinetic parameters for each interaction were determined by globally fitting the experimental data to a 1:1 interaction with BIAEVALUATION software (Biacore Inc., Piscataway, N.J.). The association rate constant and the dissociation rate constant (kₐ and kd, respectively), and the equilibrium dissociation constant (KD) are presented in the Table 4 for the receptors and PBA2-1.
In general terms: SPR reads the build-up and loss of mass on a sensor chip optically.

T1 sequence (P16234 24-524, change not shown): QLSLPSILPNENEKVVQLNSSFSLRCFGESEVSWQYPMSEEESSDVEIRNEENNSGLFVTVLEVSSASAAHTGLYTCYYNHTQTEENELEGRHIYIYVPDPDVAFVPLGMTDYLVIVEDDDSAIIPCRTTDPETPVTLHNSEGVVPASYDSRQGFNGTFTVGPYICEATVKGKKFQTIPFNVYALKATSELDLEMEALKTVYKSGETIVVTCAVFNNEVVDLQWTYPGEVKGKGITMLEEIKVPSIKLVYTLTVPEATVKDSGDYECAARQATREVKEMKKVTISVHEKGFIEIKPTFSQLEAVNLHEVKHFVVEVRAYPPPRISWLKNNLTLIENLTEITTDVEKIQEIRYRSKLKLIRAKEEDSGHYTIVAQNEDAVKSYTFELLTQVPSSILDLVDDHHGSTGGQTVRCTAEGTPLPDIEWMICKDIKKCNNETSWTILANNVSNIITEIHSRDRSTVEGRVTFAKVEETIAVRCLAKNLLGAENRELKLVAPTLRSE

B1: PBA2-1 (peptide)
chain 1: VRKIEIVRKKK[Ahx][Ahx][Ahx]RKRKLERIAR-NH2
chain 2: VRKIEIVRKK
modifications: also: chain 2 bound through its C-terminus to the side chain of Lys11 of chain 1 (branched homodimer), bond at chain A 11 to a chain's C-terminus
notes: also called mimetic of PDGF; PDGF analog PBA2-1
By Kd is commonly meant a measure of binding affinity in units of concentration. In the case of B1, the Kd is 23.3 nM.
